Laboratory results reported in article PMC7531186 (Journal of the American Chemical Society, 2020).
Read-outs that look alike come from different tables or passages of the source.

What was measured:
[1] = target: T1, SPOP ΔBACK^28–337 (UniProt O43791 28-337); assay: fluorescence polarisation
[2] = target: T1, SPOP ΔBACK^28–337; assay: fluorescence polarisation; remark: listed apart in the source

T1 sequence (O43791 28-337, stated change not applied): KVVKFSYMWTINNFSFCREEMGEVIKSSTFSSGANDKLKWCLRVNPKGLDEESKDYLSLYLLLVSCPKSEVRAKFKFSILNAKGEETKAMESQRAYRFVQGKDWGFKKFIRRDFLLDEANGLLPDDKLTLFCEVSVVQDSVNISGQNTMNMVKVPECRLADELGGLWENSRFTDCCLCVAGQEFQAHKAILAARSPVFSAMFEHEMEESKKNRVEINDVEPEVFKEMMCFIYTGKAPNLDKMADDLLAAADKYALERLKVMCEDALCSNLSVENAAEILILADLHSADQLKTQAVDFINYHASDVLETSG

Kd [1]: 17 µM | Kd [2]: 10 µM
B1: rhodamine-labeled His-cDAXX^495–740 (domain or fragment, UniProt Q9UER7 495-740, looked up)
chain: SPMSSLQISNEKNLEPGKQISRSSGEQQNKGRIVSPSLLSEEPLAPSSIDAESNGEQPEELTLEEESPVSQLFELEIEALPLDTPSSVETDISSSRKQSEEPFTTVLENGAGMVSSTSFNGGVSPHNWGDSGPPCKKSRKEKKQTGSGPLGNSYVERQRSVHEKNGKKICTLPSPPSPLASLAPVADSSTRVDSPSHGLVTSSLCIPSPARLSQTPHSQPPRPGTCKTSVATQCDPEEIIVLSDSD
modifications: labeled with Rhodamine Red C2 maleimide
